Consider 3 molecules from patent WO2006132352A1.

B1: humanized anti-human Mpl antibody hVB22B u2-wz4 sc(Fv)2 (bulk, before separation of the structural isomers) (scFv, from another filing)
chain: QVQLVQSGPEVKKPGASVKVSCKASGYTFTNSWMNWVRQRPGKGLEWIGRIYPGDGETIYNGKFRVRVTITADESTSTAYMQLSSLRSEDTAVYYCARGYDDYSFAYWGQGTTVTVSSGGGGSGGGGSGGGGSDIVMTQSPLSLPVTPGEPASISCRSSKSLLHSNGNTYLYWFLQKPGQSPQLLIYRMSNLASGVPDRFSGSGSGTDFTLKISRVEAEDVGVYYCMQHIEYPFTFGQGTKLEIKGGGGSGGGGSGGGGSQVQLVQSGPEVKKPGASVKVSCKASGYTFTNSWMNWVRQRPGKGLEWIGRIYPGDGETIYNGKFRVRVTITADESTSTAYMQLSSLRSEDTAVYYCARGYDDYSFAYWGQGTTVTVSSGGGGSGGGGSGGGGSDIVMTQSPLSLPVTPGEPASISCRSSKSLLHSNGNTYLYWFLQKPGQSPQLLIYRMSNLASGVPDRFSGSGSGTDFTLKISRVEAEDVGVYYCMQHIEYPFTFGQGTKLEIK
B2: hVB22B u2-wz4 sc(Fv)2 peak2 (single chain diabody type structural isomer) (scFv, from another filing)
chain: B1 chain
B3: hVB22B u2-wz4 sc(Fv)2 peak1 (bivalent scFv type structural isomer) (scFv, from another filing)
chain: B1 chain

This test has as its target MG10 (Gln213 to Ala231 of the human Mpl amino acid sequence) and GST fusion protein (human) (UniProt P40238). Put plainly: SPR, Biacore 3000, MG10-GST amine-coupled on CM5, sc(Fv)2 at about 5-150 nM as analyte, bivalent analyte model. On the technique in general: SPR reads the build-up and loss of mass on a sensor chip optically.
The molecule B1 had a Kd of 10.2 nM.

Turning to B2, the Kd is 9.92 nM. As for B3, the figure is 12.4 nM.
